What is called Kd is the free concentration of one partner at which half of the binding sites on the other are occupied at equilibrium, for simple one-to-one binding. As a reminder, the IC50 is the concentration at which inhibition is half-maximal.

Positions count from the first letter of the chain named.

This note sets out measurements from article PMC11286949, “Structural basis of tRNA recognition by the widespread OB fold”.

What all share (conditions): protein: recombinant; tags: His-MBP removed; tRNA fold
In data set [1] the target is T1, Arc1p (Saccharomyces cerevisiae, UniProt P46672 1-376).
T1 sequence: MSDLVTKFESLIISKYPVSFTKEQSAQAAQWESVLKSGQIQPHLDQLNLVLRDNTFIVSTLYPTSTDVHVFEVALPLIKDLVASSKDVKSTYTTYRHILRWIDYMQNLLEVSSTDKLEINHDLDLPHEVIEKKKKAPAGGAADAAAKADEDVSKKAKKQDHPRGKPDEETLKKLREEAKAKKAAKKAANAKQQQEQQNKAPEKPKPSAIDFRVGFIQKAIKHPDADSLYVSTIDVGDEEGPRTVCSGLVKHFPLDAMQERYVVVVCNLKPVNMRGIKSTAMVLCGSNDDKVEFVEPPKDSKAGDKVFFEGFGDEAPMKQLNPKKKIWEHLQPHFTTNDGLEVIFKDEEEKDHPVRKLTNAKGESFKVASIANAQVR
In words: ITC; ITC (Arc1p): 25 mM Tris-HCl pH 7.4, 150 mM NaCl, 2 mM MgCl2, 25 °C. FP and competition FP: 25 mM Tris-HCl pH 7.5, 150 mM NaCl (Arc1p) or 50 mM NaCl (Trbp111), 2 mM MgCl2, room temperature. A general note: Isothermal titration calorimetry measures the heat released or taken up as one component is titrated into another.

The target of another data set is T2, Arc1p dNdM1 (Saccharomyces cerevisiae, UniProt P46672 166-376).
T2 sequence: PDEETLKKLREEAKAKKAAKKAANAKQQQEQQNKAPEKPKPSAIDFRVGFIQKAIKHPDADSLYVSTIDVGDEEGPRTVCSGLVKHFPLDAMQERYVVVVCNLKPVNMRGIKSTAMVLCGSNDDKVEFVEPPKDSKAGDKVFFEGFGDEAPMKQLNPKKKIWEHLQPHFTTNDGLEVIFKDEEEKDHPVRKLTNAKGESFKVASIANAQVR
Described as above.

Data set [2] deals with T3, Arc1p dN (Saccharomyces cerevisiae, UniProt P46672 132-376, del1-131).
T3 sequence: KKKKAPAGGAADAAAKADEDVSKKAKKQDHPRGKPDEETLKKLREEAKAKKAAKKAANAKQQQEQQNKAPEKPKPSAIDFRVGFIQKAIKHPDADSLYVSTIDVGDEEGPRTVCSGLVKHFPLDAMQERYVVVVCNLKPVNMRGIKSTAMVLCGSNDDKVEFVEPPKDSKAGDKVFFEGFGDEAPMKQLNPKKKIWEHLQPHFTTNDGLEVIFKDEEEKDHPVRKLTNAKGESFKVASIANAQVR
Described as above.

In the next data set the target is T4, Arc1p dN M281A (Saccharomyces cerevisiae, UniProt P46672 132-376, M281A;del1-131).
T4 sequence: T3 sequence with M150A
The data set is described as above.

For another data set, the target named is T5, Arc1p dN S278A (Saccharomyces cerevisiae, UniProt P46672 132-376, S278A;del1-131).
T5 sequence: T3 sequence with S147A
Described as above.

In data set [3] the target is T1, Arc1p. The experiment in a line: competition fluorescence polarization; ITC (Arc1p): 25 mM Tris-HCl pH 7.4, 150 mM NaCl, 2 mM MgCl2, 25 °C. FP and competition FP: 25 mM Tris-HCl pH 7.5, 150 mM NaCl (Arc1p) or 50 mM NaCl (Trbp111), 2 mM MgCl2, room temperature. In general terms: In fluorescence polarisation assays a small probe gives low polarisation when free and higher when bound to something large.

Data set [4] has as its target T3, Arc1p dN. The description is as above.

B1: tRNAIle WT (structured_RNA)
RNA: AGGCUUGUAGCUCAGGUGGUUAGAGCGCACCCCUGAUAAGGGUGAGGUCGGUGGUUCAAGUCCACUCAGGCCUACCA
In the case of B1, the Kd came out at 1280 ± 130 nM with Arc1p [1]; 2550 ± 456 nM with Arc1p dNdM1; 321 ± 101 nM with Arc1p dN [2]; 384 ± 48 nM with Arc1p dN M281A; 845 ± 149 nM with Arc1p dN S278A. For the same molecule, the IC50 in the data set with Arc1p [3] was determined as 948 ± 241 nM; with Arc1p dN [4], 363 ± 96.4 nM.
